The target of data set [1] is T1, ZFRlong;ILF2 (29-390) (human;human?, UniProt Q96KR1;Q12905 317-1074;29-390, |). Briefly: EMSA; 4 mM Mg2+; EMSA: 20 mM HEPES pH 7.5, 150 mM K acetate, 4 mM Mg acetate, 1 mM DTT, 0.5 uM nucleic acid, 1 h on ice; 8% native PAGE in 0.5x TBE at 4 C. As to conditions: protein: recombinant;recombinant, tags: N-terminal His6;N-terminal His6, copies: 1;1, blunt.
For data set [2], the target named is T1, ZFRlong;ILF2 (29-390). The data set is described as follows: EMSA; 4 mM Mg2+; affinity similar to 24-mer dsRNA; EMSA: 20 mM HEPES pH 7.5, 150 mM K acetate, 4 mM Mg acetate, 1 mM DTT, 0.5 uM nucleic acid, 1 h on ice; 8% native PAGE in 0.5x TBE at 4 C. As to conditions: protein: recombinant;recombinant, tags: N-terminal His6;N-terminal His6, copies: 1;1, label: Cy5 on RNA strand (5' per Methods), RNA:DNA duplex.

Where [3] appears, read: label: Cy5 on strand 1 (5' per Methods).
[4] abbreviates: label: DY681 on strand 1 (5' per Methods).

T1 sequence (Q96KR1 317-1074, chain 1 of 2): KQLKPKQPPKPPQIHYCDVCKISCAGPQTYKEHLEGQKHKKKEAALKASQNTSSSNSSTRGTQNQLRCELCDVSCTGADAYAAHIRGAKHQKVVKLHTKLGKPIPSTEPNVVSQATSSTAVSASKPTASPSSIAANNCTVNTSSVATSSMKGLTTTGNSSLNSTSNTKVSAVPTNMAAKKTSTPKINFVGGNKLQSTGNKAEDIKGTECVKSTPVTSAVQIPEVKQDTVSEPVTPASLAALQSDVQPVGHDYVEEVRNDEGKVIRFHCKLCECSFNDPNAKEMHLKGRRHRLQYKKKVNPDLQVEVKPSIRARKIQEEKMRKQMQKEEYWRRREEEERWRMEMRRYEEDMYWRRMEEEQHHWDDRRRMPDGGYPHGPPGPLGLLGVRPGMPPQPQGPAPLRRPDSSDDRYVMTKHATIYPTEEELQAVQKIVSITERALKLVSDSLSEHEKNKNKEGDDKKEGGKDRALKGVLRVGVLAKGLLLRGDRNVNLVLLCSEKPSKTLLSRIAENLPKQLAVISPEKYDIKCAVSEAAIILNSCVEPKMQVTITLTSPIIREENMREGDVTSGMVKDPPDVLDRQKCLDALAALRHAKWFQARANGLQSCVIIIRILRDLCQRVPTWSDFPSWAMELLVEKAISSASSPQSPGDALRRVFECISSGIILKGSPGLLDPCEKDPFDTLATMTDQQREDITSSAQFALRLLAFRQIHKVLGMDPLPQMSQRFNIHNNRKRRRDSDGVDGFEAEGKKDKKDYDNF
T1 sequence (Q12905 29-390, chain 2 of 2): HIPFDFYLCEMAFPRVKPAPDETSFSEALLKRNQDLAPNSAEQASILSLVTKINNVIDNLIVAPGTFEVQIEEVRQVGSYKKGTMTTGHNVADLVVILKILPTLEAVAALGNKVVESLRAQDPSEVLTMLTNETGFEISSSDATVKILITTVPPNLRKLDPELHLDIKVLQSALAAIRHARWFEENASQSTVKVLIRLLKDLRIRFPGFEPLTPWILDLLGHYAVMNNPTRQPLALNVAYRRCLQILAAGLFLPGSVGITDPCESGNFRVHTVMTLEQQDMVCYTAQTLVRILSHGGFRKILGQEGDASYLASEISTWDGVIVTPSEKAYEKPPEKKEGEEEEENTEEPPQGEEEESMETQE

B1: C-rich (GC-rich) 24-mer dsRNA, Zfr-RBNS1 (dsRNA)
RNA 1: AAUGACACCCAAAAUGACACCCAA
RNA 2: UUGGGUGUCAUUUUGGGUGUCAUU
Consider B1, for which, in the data set with ZFRlong;ILF2 (29-390) [1] (setting [3]), the Kd was roughly 300 nM.

B2: U-rich (AU-rich) 12-mer dsRNA, Zfr-RBNS3 (dsRNA)
RNA 1: AAUGUUGUAAAA
RNA 2: UUUUACAACAUU
For the molecule B2, the Kd with ZFRlong;ILF2 (29-390) [1] (setting [4]) was roughly 800 nM.

B3: U-rich (AU-rich) 24-mer dsRNA, Zfr-RBNS3 (dsRNA)
RNA 1: AAUGUUGUAAAAAAUGUUGUAAAA
RNA 2: UUUUACAACAUUUUUUACAACAUU
As to B3, in the data set with ZFRlong;ILF2 (29-390) [1] (setting [3]), the Kd is roughly 300 nM.

B4: U-rich 24-mer RNA : A-rich DNA hybrid, Zfr-RBNS3 (DNA:RNA)
RNA: AAUGUUGUAAAAAAUGUUGUAAAA
DNA: TTTTACAACATTTTTACAACATT
In the case of B4, the binding result with ZFRlong;ILF2 (29-390) [2] (printed DNA 1 nt short) was “binds”.

B5: C-rich 24-mer RNA : G-rich DNA hybrid, Zfr-RBNS1 (DNA:RNA)
RNA: AAUGACACCCAAAAUGACACCCAA
DNA: TTGGGTGTCATGGGTGTCAT
In the case of B5, the binding result in the data set with ZFRlong;ILF2 (29-390) [2] (printed DNA 4 nt short) is “binds”.

B6: C-rich (GC-rich) 12-mer dsRNA, Zfr-RBNS1 (dsRNA)
RNA 1: AAUGACACCCAA
RNA 2: UUGGGUGUCAUU
On to B6, for which, in the data set with ZFRlong;ILF2 (29-390) [1] (setting [4]), the Kd is roughly 800 nM.

The values are drawn from article doi:10.1101/2022.06.15.495552, “A network of DZF proteins controls alternative splicing regulation and fidelity”.
